In the supplement of paper PMC10567573:

B1: TRIM63 (parent)
chain: FRCPTCRHEVIMDRHGVYGLQRNL

Variants of: B1
Test: protein stability index of a GFP-peptide fusion (GPS, HEK-293T) (PSI 1-6); higher = more stable
Settings: c terminus: a fixed tail appended
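Note: lentivirally expressed fusions sorted by FACS into six bins by GFP to DsRed ratio, PSI derived from sequencing read proportions per bin multiplied by bin number.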

Protein stability index, by site and new letter:
R2: C 2.58, D 3.32, E 2.55, F 3.38, G 3.06, H 2.17, I 2.79, K 1.77, L 1.98, M 2.58, N 1.44, P 1.56, Q 1.84, S 1.4, T 2.05, V 1.86, W 2.42, Y 1.87
C3: A 3.2, D 1.7, E 2.04, F 3.62, G 2.15, H 4.77, I 2.6, K 1.74, L 2.9, M 4.35, N 3.22, P 1.94, Q 1.78, R 1.54, S 2.41, T 1.52, V 2.12, W 2.18, Y 3.25
P4: A 2.38, D 2.24, E 2.16, F 3.47, G 1.38, H 3.24, I 3.9, K 2.67, N 3.06, Q 3.65, R 2.18, S 2.93, T 3.2, V 2.99, Y 2.74
T5: A 2.39, C 2.14, D 3.7, F 2.32, G 1.33, H 3.16, I 2.53, K 2.38, L 1.72, M 2.28, N 3.43, Q 1.64, R 1.77, S 1.82, V 3.27, W 2.17, Y 2.65
C6: A 2.57, D 2.62, E 2.61, F 1.63, G 2.31, H 1.91, I 1.89, K 2.15, L 2.16, M 2.06, N 2.38, P 2.89, Q 2.73, R 2.27, S 2.09, T 2.97, V 2.51, W 1.77, Y 2.37
R7: A 2.63, C 2.24, D 3.28, E 2.09, F 2.42, G 3.57, H 2.46, K 3.15, L 2.13, M 2.42, N 3, P 2.36, Q 2.48, S 2.24, T 2.35, V 2.93, W 2.12, Y 1.94
H8: A 2.6, C 2.52, D 1.77, E 1.81, F 2.64, I 2.11, K 2.02, L 2.39, M 3.58, N 2.24, P 3.14, Q 1.91, R 1.89, S 1.96, T 2.31, W 1.72, Y 2.34
E9: A 2.48, C 2.56, D 1.79, F 2.14, H 2.63, I 1.43, K 1.01, L 2.99, M 2.06, N 2.69, P 1.94, Q 2.63, R 1.47, T 2.34, V 3.23, W 2.12, Y 1.86
V10: A 2.65, C 2.18, D 2.9, E 1.91, F 2.25, G 2.58, H 1.59, I 2.51, K 3.42, L 2.73, M 1.74, N 3.46, P 1.76, Q 1.8, R 2.41, S 3.91, T 2.62, W 2.16, Y 2.05
I11: A 1.69, C 2.02, D 1.08, E 1.85, F 2.23, G 3.3, H 2.54, K 1.77, L 2.18, N 2.82, P 2.05, Q 1.61, R 3.19, S 2.52, T 2.48, V 1.88, W 1.69, Y 1.74
M12: A 2.35, C 2.02, D 1.99, E 2.19, F 2.18, G 2.8, H 2.06, I 3.22, L 2.66, P 1.62, Q 2.29, R 2.11, S 3.59, T 2.59, V 2.98, W 2.17, Y 1.73
D13: A 2.42, C 2.18, E 2.44, F 1.71, G 3.87, H 1.83, I 2.07, K 1.76, M 2.79, N 1.04, P 2.15, Q 3.89, R 3, S 2.13, T 1.9, V 1.32, W 2.09, Y 1.69
R14: A 1.99, C 1.63, D 2.5, E 3.1, F 1.7, G 2.01, H 1.71, I 1.96, K 2.07, L 2.05, M 1.91, N 2.16, P 2.05, Q 2.52, S 3.39, T 2.29, V 1.54, W 1.72, Y 1.95
H15: A 1.67, C 2.32, D 2.08, E 2.43, F 1.67, G 2.12, I 2.19, K 2.16, L 2.17, M 2.71, N 2.13, P 2.66, Q 3.54, R 1.48, S 2.44, T 2.46, V 3.01, W 2.11, Y 2.49
G16: A 2.15, C 2.42, D 2.47, E 1.87, F 2.65, H 2.34, I 2.15, K 2.39, L 2.21, M 2.15, N 2.2, P 2.25, Q 2.33, R 1.83, S 1.97, T 1.65, V 1.69, W 2.31, Y 2.49
V17: A 2.98, C 2.47, D 1.58, E 1.43, F 2.75, G 3.09, H 2.23, I 2.41, K 2.19, L 2.08, M 1.69, N 2.28, P 2.26, Q 3, R 1.53, S 2.77, T 2.66, W 1.8, Y 2.19
Y18: A 1.98, C 2.06, D 1.73, E 3.06, F 2.13, G 2.31, H 1.87, I 1.86, K 1.98, L 2.54, M 3.62, P 2.23, Q 3.53, R 2.08, S 2.62, T 2.69, V 1.67, W 1.94
G19: A 2.7, C 2.57, D 1.67, E 1.86, F 2.28, H 2.51, I 1.92, K 2.07, L 1.47, M 1.98, N 2.21, P 2.25, Q 2.46, R 2.31, S 2.21, T 2.8, V 2.14, W 3.11, Y 2.92
L20: A 1.77, C 2.39, D 2.42, E 2.27, F 2.02, G 1.66, H 2.75, I 1.6, K 1.51
